Laboratory results reported in the DeepSol protein solubility set.

Experiment: soluble on expression in E. coli; label from the status in PepcDB or PDB records

Sequence	soluble on expression in E. coli
MIRSSIDLMLKTGAAALAKNFENRDPIAGQREILARLVVAAAVTRFGRDHGFAELAGEPFDRLYAEFRRRVPIRTYADFWRDYFSAWQSDANGSQRLLLEDVTWPGRIPFFCETSGTTAPTKYIPFSREMFAANKRAAIDLTACYLHRTPRSRLFQGKLLYMAGNTSLTDLGNGVQSGDMSGITLRHRPFYLRPFVAPGMAVSALPWEEKVVELAGLLLSDRSIRGISGVPPWIILLLQRVEEMGHRPIAELLPNLELIIHGGTSMKPYRREFDGLFPRRRPHFLEVLPSSEAFMAFQLPGEDRMRLVPHYGAFFEFIPIEDLDEGGTPAADAPTVPLEAVETGRRYAVILTTCAGLWRYHIGDTLRFTALSPHFIEFTGRDRFLDRFEEKVTQGEVEEAVARLNQLDGIEVREFMVGPDIGERRHLWVLAVGEMNERSGDVLGRHLDATLRSLNADYATFRSQGRIAGPRVVTVSGDVIYRWSKEVRGKLGGQSKIPHVDPTVEGEMVASLAAFARRFQACWIADSFQGFGPTGRVKVQNSSNFTGSRSLPERTRPSSSVVLEHHHHHH	not soluble
MIRVTIEREADGRIRAFTMEGHAHFAKRGQDIVCAGASAVSFGTINAIETLIGVSPHVSLGKDGGYLRCELPELEEAAAEKVQLLLEAMVVSLKTIERDYGTFIRVTSI	not soluble
MISNKRRPKIKIWNKEQMALYLKAIKKDRLYAAFVTDSKSGLRKSELLALRWSDIDFSTGLTKIERGWVRSPKGTLYLSDLKSENSERTLVFSTDLLKVLLEHKSRQDEEKKTAGKNYIDNGLVFCREDGSYINPSTFTRRHYDLTAKAKLPRISVHALRHSISTALLESGKVDLKQIQEMLGHKDISTTGNYYTDVLERMKQKTSELIDNLIQTELEHHHHHH	not soluble
MISNQVLQNTLEGLKEISRTEFCIIDTEGKVLATTFADFSIQPGDIQAFVESQADSQLVKGFQYFKVCDDYQLEYILVAHGDDEDTYMVGKLAAFQIQNLIVAYKERFDKDSFIKNLLLDNLLLVDIYNRAKKLHIDADVRRVVMILELQQEKDHSSMESVKSFFGGKSKDFITAVDEKSIIIVKELEDGEGYAEMDKLAHAILDTLGLNQNEETHIAYGTIVNELKEVSRSYKEARMALDVGKIFFGEKDVIAYSSLGIGRLIYQLPIPLCKMFIKEIFENKSPDDFDEETLVTIDKFFENSLNVSETSRQLYIHRNTLVYRLDKLQKSTGLDLRVFEDAITFKIALMVVRYMKYMETLEY	not soluble
MISRIHIEEFRDIGDLELFFLPGVNLLIGDNGSGKTSVLKACQYVLGTFFCGFKMDHTPTWTQLTPEAKDFRRRVSSDGDELMKHPIKFNFDLRYEENGQNPIELTDQILTKRNTLGRALTTTFQDHQDYTKGLLEGYATDEGRYRPLPVFVFYSVEDIHTKRKVSHSLFQKYRHMASFGYYHALTENAFLDFWIKRMLILREEEQAGNHELAVVRGALLSALGTDGAGVLQDLSIRINKKAVYWKLLDGREISSEHLPDGLRRVISIVVDLAFRCALLNQTLYQSDSALKSEGTVLIDEIDLHLHPRLQASILKGLRKAFPRLQFIITSHAPMVMSSVDADDKYNIVYKMSYNQEMSQYEALKQSTYGLDVSTIMRMILGLAPRDKQVDERLTHLFDLIDLEKYSEATIALQSLQDQFDDSLPELSKASVMLHFLSSEQNEENH	not soluble
MISSLAVEFGALRLACTSKIVMATRNMPARGTKPLPRHLWDMSDLEEKTSGQYTHKPLRINRLGGRDPETGRKVNQHIGGGVKFDYFMIDFHRRGPADQGATYDERILEIRRDPNRTCHIALCAGINGKRWILATENMKAGDVISTSGHLSENPVIGVEGNAYPIGSLAAGTVINSIERYPTMDSETFVKAAGTSATIVRHQGDFTVVKLPHKHEFSLHRTCMATVGRLSHADIDGKIFGSAQMHRRFGYKMSSGLFHKKDGYFGRKVRALPPVRILDTPPQAPPPNQRFTLSKKDLSGLHGHAKVHNLIPAGYSTRDYPE	not soluble
MISVVIPAKDEVGNIGPLMKEICQALQGVTEFEILVVDDGSQDDTFGEVIHTAELMLCNAKAIRHERSTGQSTAISTGVLHARGQYIVTLDADGQNDPADIPAMLAQLPQIHAEHFCIAGYRKNRKDTAWKRFQSRFANKVRDALLHDGVPDTGCGLKLFPRETFLRMPYFDHMHRYIPALVRRMGGEVFISVVNHRDRQLGVSKYTAWNRVWVGIVDIMGVIWLGRRAKIAKVARSETRWHDLEHHHHHH	soluble
MITKRQLSILNAIVEDYVDFGQPIGSKTLIHRHHLDVSPATIRNEMKQLEEMHFIEKTHTSSGRVPSESGIRYYVNRLLEQTSHQSQNKIQRLNQLLIENHYDSSTALTNFAHELSMKSQYATLVVRPNHKQDVINDIHLIRANNHLIILVMVFSSGHVENIHFVSHAQLNNINLNKIANFLTEHFSFNRKVLTQNIESYFSQKEELLLANEVVEMINLQIGNQSNSIYMGGKVKLIDALNESNVSSIQPILQYIESNKITELLEDISTSQINVRIGKEIDDSLSDISIVTSQYHFDESLKGQIAVIGPTAMHYQNVIQLLNRIW	not soluble
MITLWGRNNSTNVKKVLWTLEELELPYDQILAGGKFGVNQDADYLAMNPNGLVPLLKDDETDLLLWESNAIVRYLAAQYGQNRLWVDNPARRAEGEKWMDWANQTLSPAHRVILMGLVRTPPEKRDQAAIEAGIEKCDSLFALLDDALAHQPWFSGDNFGTGDIAIAPFVYNLLNVGLKWTPRPNLERWYQQLTERPAFRKVVMIPVT	not soluble
MITMKIEDVYIWDINARWLGVTPYQLMENAGASVARVIEEKFGKNLKIAVFCGTGNNGGDGFVAARHLSYENDVTVFLIGEEVKIRSEEAKLNWNILKNLDFVKIKVLKDSSQIRELDLSEFDIIVDALLGAGTRGKPREPIKSAIEKINEYSGKVKIVSIDLPSGYPSEIRVKADFAVTFQWDKEEFKDFKRIIAKIGYPKELKYLVGPAHVKFAYKRKGEHKGQNGKLLIIGGSENYYGAPVLAASAAKHLVDLVFLLLPQNAARRVNDPDLIVREVDGLNFTPEHIKSALELVEKVDAIVIGPGIGVREETKEFVKGIIERVEKPIVVDADGLKIIAEFKDILKGKEIVLTPHAGEFKLLFGEKVPEDLVEKGKVVMRRAKEIGATILLKGKYDVISDGKVWLYNKTGNRGMTTGGTGDVLAGTVGAFLALGNKALKAAAAGAFLVGFAGDLVMEEKGEAFTARDVAEKIPIALKKIIEF	soluble
MIVFSSLQIRRGVRVLLDNATATINPGQKVGLVGKNGCGKSTLLALLKNEISADGGSYTFPGSWQLAWVNQETPALPQAALEYVIDGDREYRQLEAQLHDANERNDGHAIATIHGKLDAIDAWSIRSRAASLLHGLGFSNEQLERPVSDFSGGWRMRLNLAQALICRSDLLLLDEPTNHLDLDAVIWLEKWLKSYQGTLILISHDRDFLDPIVDKIIHIEQQSMFEYTGNYSSFEVQRATRLAQQQAMYESQQERVAHLQSYIDRFRAKATKAKQAQSRIKMLERMELIAPAHVDNPFRFSFRAPESLPNPLLKMEKVSAGYGDRIILDSIKLNLVPGSRIGLLGRNGAGKSTLIKLLAGELAPVSGEIGLAKGIKLGYFAQHQLEYLRADESPIQHLARLAPQELEQKLRDYLGGFGFQGDKVTEETRRFSGGEKARLVLALIVWQRPNLLLLDEPTNHLDLDMRQALTEALIEFEGALVVVSHDRHLLRSTTDDLYLVHDRKVEPFDGDLEDYQQWLSDVQKQENQTDEAPKENANSAQARKDQKRREAELRAQTQPLRKEIARLEKEMEKLNAQLAQAEEKLGDSELYDQSRKAELTACLQQQASAKSGLEECEMAWLEAQEQLEQMLLEGQSN	soluble
MIVMATCLLPDETDDACARNPWISHELVTSTVGPGDGLDLRAACSTGTLISGGCSADTFPDDELSLMRSGFAPDNRDEWLCSFKSLHESVTYEVATMAFCLNEDPLPAECGCCPPLAEQLTIRQTNEPLRNGPNRLEASCEDDEFLLIGNCMLDVPAVSEVESVTMFRYGYPPTDEHPDGDYSKWGCSWHNPTGYTPRALANAVCLPAQ	not soluble
MIVSFMVAMDENRVIGKDNNLPWRLPSELQYVKKTTMGHPLIMGRKNYEAIGRPLPGRRNIIVTRNEGYHVEGCEVAHSVEEVFELCKNEEEIFIFGGAQIYDLFLPYVDKLYITKIHHAFEGDTFFPEMDMTNWKEVFVEKGLTDEKNPYTYYYHVYEKQQLEHHHHHHHH	soluble
MIYEIGGHEVSIVRATPGLAKSYYDLLMELYEDPNSYILVNYSKDPPQLESIVERSKNWNVHPHYMHFALYKDKVVGFAGSLLGPDYGPEVQPHIAEIYYGVSKGWRKTGLIYALLYTALSDINAKIVKATAYVENLPSINVLLKIGLRIIAVLEENDFHYMSGKMHDDYLFRGFRSDCLNRLPGLLEKHGISVIR	not soluble
MIYEIKFAHGESNVFAISDIELAPQTEVILRSDKGNFYGKIVREISEEANLEIHHTIVREVNEDDLQVIAKLEERSKQAKDKVRQLVIEQGLEMKIIDVAYNFDQMQLFISFTAENRVDFRLLLRELATTFRIRIELRQIGPRDAAKIHGGLGPCGRPLCCSEFVYEFPNVSIKMAKNQNLSLKQNKLNGLCGRLMCCLTYEDSFYKEAQQLFPDFGEFVTTSEGKGKVVGLNVLKNRVKIRFGEYSKDFELAEIEVNHGLEHHHHHH	soluble
MIYPYNSTISLGTVSLNVTDLAKMTTFYTSIIGLQVLSQDTTSRQLTTDGKTVILELRQTPLPGDKAYGLYHTAFLVPDRHSLGLVLNHFLTRSISLEGAADHGHSEAIYLSDPEGNGIEIYHDKAVEHWDIRDNGQIIGVTEPTDTKSILEQLTDIPKHFLLAQDTRIRHVHLSVKNALASSLLYQKVFDLGDKMTIPSASWIASGNYYHHLAFNHWSAPYLKKHQEGAPGLAFLTIHIETPLLFSATLKKARLHGLAILQEDSSSFTTEDEEGIRVNVILGQD	not soluble
MKACGIIVEYNPFHNGHRYHAQQARQQSGAEVVIAIMSGNFLQRGEPALLDKWARAEEALQNGVDLVIELPTAWSVQSADYFAKGGIKLLQALQCESLCFGTDSTSAIDYAAFGQFVQENQSLIDQTFHALTDKQLSYPQKMTAVFRQVYPESRFDFSSPNHILGMSYAKENATYPTPMTLYPIARKQAGFHDATISGKVASATAIRQSVFQQEITQVLPTVPSITAQHLQTQTMISWENYWPFLKYKIVQSSLEELQAIYQMTEGLEYRLKDQIQAAGSFHELMERMKTKRYTWTRLQRLATYILLNMTKEEVETVWQNSYLHVLGFTPKGQAYLKETKAQIQLPVISKVSKENRAMLSLDIRANQLYQMGDSSLKEQNFGRFPLRFSPDT	not soluble
MKAEIISVGTEILLGDIVNTNSQFLAKELASLGIEVYHQSTVGDNKQRLLECFDESLKRSDFVITTGGLGPTGDDMTKETAAEYFGQKLELHKPSLEVLESFFVKTGKKMAENNMKQVYFPKDAIVLKNNNGTAPGAILKKDGKFIIVLPGPPREMKAMFNESVKPYLQQFTNEMLVSKTLRLYGIGESNLELEILDIINEQTNPTVALYAKELEVTIRITAKAENEREAFKLIKPVEEKIKSRVGKYVYTEGDISISEGETALEDAVSKLLVEKNLTIAVAESCTGGLVSSSLINYPGISSVFLEGCVTYSNDSKMKRLGVKRETLEEFGAVSEQTAIEMAEGVAKGLKANIGISTTGVAGPGGGTKEKPVGLVYTAIYINGKTIVKKNIFNGDRRKIRLRATRDLLNELRIQLEKL	not soluble
MKAIIISIGDELLKGHRVNTNAPFIARELGNIGIPVTRIITCSDDPQAIRDSVTLALTEAEAVFVTGGLGPTNDDRTRDAVRALLGRGLALDEPSFERIADYFRRRNRPVTEVMKDQAMVIEGSIAIPNTKGTAPGMIIECAPRFAGRHLVLMPGVPAEMEAMMRLTVVPFFAPLSGAFIRHTPVMTMGIGETQLADMIVEVEDSLPSGTTLAYLPHAAGVSLMVSTSGA	not soluble
MKAKDVKLLARYLEMLKDPNIIKTQDVFTVIRYISYNSYGKTMAWNWIQLNWDYLVSRFTINDRYLGRIVTIAEPFNTELQLWQMQSFFAKYPNAGAGAKPREQVLETVKNNIEWLNVNRQSIREWFASLP	not soluble
